Test results published in publication PMC1420302.

Target: SF3b1-NT-His6 (human) (UniProt O75533)
UniProt O75533, sequence (O75533 1-511): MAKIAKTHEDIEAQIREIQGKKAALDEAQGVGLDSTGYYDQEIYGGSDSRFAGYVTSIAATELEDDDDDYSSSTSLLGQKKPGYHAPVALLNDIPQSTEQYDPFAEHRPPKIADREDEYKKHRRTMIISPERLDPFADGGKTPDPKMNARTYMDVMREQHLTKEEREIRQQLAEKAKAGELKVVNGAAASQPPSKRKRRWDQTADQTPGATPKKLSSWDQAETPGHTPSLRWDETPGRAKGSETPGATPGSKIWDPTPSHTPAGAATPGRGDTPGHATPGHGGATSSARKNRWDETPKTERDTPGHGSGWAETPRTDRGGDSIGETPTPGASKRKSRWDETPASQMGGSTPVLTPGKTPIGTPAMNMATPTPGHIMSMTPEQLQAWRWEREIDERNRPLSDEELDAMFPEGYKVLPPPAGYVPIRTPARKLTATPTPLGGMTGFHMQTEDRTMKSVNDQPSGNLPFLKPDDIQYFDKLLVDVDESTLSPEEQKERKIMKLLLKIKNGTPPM

Row | Substance | approximate Km of phosphorylation, from velocities of phosphate incorporation at 0.7 and 7 μM substrate [µM]
1 | GST-DYRK1A-ΔC (from UniProt Q63470 1-763) (enzyme) | 2.75
2 | cyclin E/CDK2 (from UniProt P24864 1-410; P24941 1-298) (complex) | 3.51
